For orientation: Kd means the free concentration of one partner at which half of the binding sites on the other are occupied at equilibrium, for simple one-to-one binding. A higher Kd goes with lower affinity. A word on the koff: it is the rate constant with which the complex falls apart. A higher koff goes with fast dissociation. Usually kon stands for a measure of how fast the partners come together.

Data on one substance can be found in patent US20260167741A1.

In assay [1] the target is monomeric FcγRIIb (human) (UniProt P31994). Description: BLI (Octet), steady-state, antibody on FAB2G sensor. In general terms: Biolayer interferometry detects binding as a change in optical thickness at a sensor tip.
Assay [2] has as its target monomeric FcγRIIa-131R (human) (UniProt P12318). The description is as above.
Assay [3] deals with monomeric FcγRIIa-131H (human) (UniProt P12318). The assay is described as above.
Assay [4] deals with monomeric FcγRIIIa-158V (human) (UniProt P08637). Description: BLI (Octet), antibody on FAB2G sensor, monomeric FcγR in solution.
Assay [5] concerns the target monomeric FcγRIIIa-158F (human) (UniProt P08637). Described as above.
The target of another assay is monomeric FcγRI (human) (UniProt P12314). The description is as above.
Assay [6] addresses tetrameric FcγRI-streptavidin-His labelled with Alexa647 (human) (UniProt P12314). Description: flow cytometry: SKOV-3 (HER2-expressing) cells treated with 100 nM antibody, then tetrameric FcγRI-Alexa647 (50 or 100 nM by paragraph 186, not said on the sheet).

Chain of monomeric FcγRIIIa-158V (human) (P08637 17-208 F176V limits assumed): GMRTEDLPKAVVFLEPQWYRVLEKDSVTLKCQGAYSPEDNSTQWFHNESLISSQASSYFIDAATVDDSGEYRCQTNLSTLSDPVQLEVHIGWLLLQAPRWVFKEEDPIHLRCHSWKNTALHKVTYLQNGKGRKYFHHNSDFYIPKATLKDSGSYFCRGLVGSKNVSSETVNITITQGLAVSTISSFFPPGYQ
Chain of monomeric FcγRI (human) (P12314 16-292 limits assumed): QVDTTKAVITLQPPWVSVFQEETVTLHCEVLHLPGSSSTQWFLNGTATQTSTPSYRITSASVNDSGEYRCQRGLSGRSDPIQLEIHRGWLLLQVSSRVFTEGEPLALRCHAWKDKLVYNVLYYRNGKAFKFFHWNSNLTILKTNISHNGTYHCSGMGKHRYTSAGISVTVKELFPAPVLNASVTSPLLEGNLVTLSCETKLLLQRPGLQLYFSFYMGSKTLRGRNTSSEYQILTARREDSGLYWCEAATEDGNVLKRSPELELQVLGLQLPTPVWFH
Chain of monomeric FcγRIIIa-158F (human) (P08637 17-208 limits assumed): as the sequence (P08637 17-208 F176V limits assumed) above, with V160F counted along it
Chain of monomeric FcγRIIa-131H (human) (P12318 34-217 limits assumed): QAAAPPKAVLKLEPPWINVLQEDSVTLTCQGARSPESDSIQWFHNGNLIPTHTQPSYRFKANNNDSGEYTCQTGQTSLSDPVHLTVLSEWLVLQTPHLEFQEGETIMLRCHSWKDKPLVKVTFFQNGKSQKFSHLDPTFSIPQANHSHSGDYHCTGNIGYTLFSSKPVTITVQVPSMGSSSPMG
Chain of tetrameric FcγRI-streptavidin-His labelled with Alexa647 (human) (P12314 other isoform, or with tags, fused parts or gaps limits assumed): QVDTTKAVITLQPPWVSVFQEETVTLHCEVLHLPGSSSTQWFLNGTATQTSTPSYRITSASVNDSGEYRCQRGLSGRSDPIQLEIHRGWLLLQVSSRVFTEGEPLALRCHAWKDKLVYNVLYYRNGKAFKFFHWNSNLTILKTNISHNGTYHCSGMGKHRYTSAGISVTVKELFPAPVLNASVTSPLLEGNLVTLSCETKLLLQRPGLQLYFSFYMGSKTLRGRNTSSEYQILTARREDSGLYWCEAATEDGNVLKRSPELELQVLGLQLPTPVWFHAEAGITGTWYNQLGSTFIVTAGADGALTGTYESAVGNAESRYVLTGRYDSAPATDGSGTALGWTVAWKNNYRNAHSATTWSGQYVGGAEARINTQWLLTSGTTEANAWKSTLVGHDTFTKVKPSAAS
Chain of monomeric FcγRIIa-131R (human) (P12318 34-217 H167R limits assumed): as the sequence (P12318 34-217 limits assumed) above, with H134R counted along it
Chain of monomeric FcγRIIb (human) (P31994 43-217 limits assumed): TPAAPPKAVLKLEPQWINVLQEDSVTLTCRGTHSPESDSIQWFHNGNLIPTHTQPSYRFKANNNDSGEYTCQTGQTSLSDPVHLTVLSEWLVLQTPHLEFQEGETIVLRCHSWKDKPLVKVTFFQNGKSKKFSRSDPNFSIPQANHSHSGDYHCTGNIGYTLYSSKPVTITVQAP

Take Trastuzumab-LALA (antibody): the equilibrium dissociation constant (Kd) worked out at 390 µM in assay [1]; 22 µM in assay [2]; 38 µM in assay [3]; 1.19 µM in assay [4]; 1.36 µM in assay [5]; 0.136 µM in the assay with monomeric FcγRI (human). Further, the off-rate constant (koff) was 0.0833 s⁻¹ in assay [4], 0.033 s⁻¹ in assay [5] and 0.0203 s⁻¹ in the assay with monomeric FcγRI (human). In addition, the results for the kon (in assay [4]; in assay [5]; in the assay with monomeric FcγRI (human)) were 70200 M⁻¹ s⁻¹, 24300 M⁻¹ s⁻¹ and 149000 M⁻¹ s⁻¹, respectively. Also, the MFI in assay [6] stood at 709.
